For one molecule, maximum FRET efficiency results are on record in PMC3084761.

Where only a bound is given, the exact number is not on record here.

The experiment deals with ECFP-FKBP38 fusion protein (pECFP-C1-FKBP38), Q14318. Kind of experiment: FRET or BRET; live-cell confocal FRET of ECFP (donor) and EYFP (acceptor) fusions in HEK293 cells transfected 48 h; acceptor/donor plasmid ratios 1:1 to 5:1; FRET efficiency against A/D ratio fitted to a 1:1 binding model. Conditions: remark: other sources report otherwise. Background: Bioluminescence resonance energy transfer reports proximity on the nanometre scale.
Chain of ECFP-FKBP38 fusion protein (pECFP-C1-FKBP38), Q14318 (Q14318 whole entry, the tested form may be a part): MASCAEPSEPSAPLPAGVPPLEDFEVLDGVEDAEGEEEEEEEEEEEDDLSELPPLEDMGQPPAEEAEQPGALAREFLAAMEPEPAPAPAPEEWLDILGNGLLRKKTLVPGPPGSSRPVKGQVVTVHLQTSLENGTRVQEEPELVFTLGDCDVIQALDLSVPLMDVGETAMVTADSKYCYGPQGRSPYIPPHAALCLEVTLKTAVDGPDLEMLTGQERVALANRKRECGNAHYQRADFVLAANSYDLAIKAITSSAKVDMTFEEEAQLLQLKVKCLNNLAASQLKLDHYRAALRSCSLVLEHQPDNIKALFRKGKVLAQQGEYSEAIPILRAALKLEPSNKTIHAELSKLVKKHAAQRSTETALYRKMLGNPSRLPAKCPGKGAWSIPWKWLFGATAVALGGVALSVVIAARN

B1: PHD2-EYFP (PHD2 coding sequence in pEYFP-N1), Q9GZT9 1-426 (enzyme)
chain: MANDSGGPGGPSPSERDRQYCELCGKMENLLRCSRCRSSFYCCKEHQRQDWKKHKLVCQGSEGALGHGVGPHQHSGPAPPAAVPPPRAGAREPRKAAARRDNASGDAAKGKVKAKPPADPAAAASPCRAAAGGQGSAVAAEAEPGKEEPPARSSLFQEKANLYPPSNTPGDALSPGGGLRPNGQTKPLPALKLALEYIVPCMNKHGICVVDDFLGKETGQQIGDEVRALHDTGKFTDGQLVSQKSDSSKDIRGDKITWIEGKEPGCETIGLLMSSMDDLIRHCNGKLGSYKINGRTKAMVACYPGNGTGYVRHVDNPNGDGRCVTCIYYLNKDWDAKVSGGILRIFPEGKAQFADIEPKFDRLLFFWSDRRNPHEVQPAYATRYAITVWYFDADERARAKVKYLTGEKGVRVELNKPSDSVGKDVF
With B1, the maximum FRET efficiency is above 20%.
